Laboratory results: the nanobody polyreactivity screen of Harvey et al. (2022)

assay: yeast display, Sf9 membrane polyspecificity reagent, FACS + sequencing; frameworks hold sequencing errors
In short: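 A nanobody's polyreactivity label depends on the gate it was sorted from. Yeast display cells were stained with 10% biotinylated, detergent-solubilized Sf9 membrane reagent for 1 hour at 4 °C, enriched on streptavidin microbeads and sorted by FACS. The low and high (top ~1%) gates were set on anti-HA fluorescence for expression and streptavidin fluorescence for reagent binding.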

Sequence | polyreactivity (PSR sort gate)
QVQLVESGGGVVQAGGSLRVRCAASGIIYFIDYAMGWYRQAPGKERELVAAITSGGSTNYADSVKGRFTISRDNAKYTVYLQKNRLKPEDTAVYYCAAYLYSGSQYYFWGQGTQVIVSS | high polyreactivity
QVQLVESGGGVVQAGGSLRVSCAASGRIFYGNAMGWYRQAPGKERELVAVISSGGSTYYADSVKGRFTISRDNAKNTVYFQMNSLKPEDTAVYYCAAQVRKYKDGSFRYHYWGQGTQVNVSS | high polyreactivity
QVQLVESGGGVVQAGRSLRLSCAASGSTFWAYLMGWYRQAPGIERELVASISRGGSTNYTDSVKGRFTISRDNAKNTVYLQMNSLKPEDTEVYYCAKRPYPYKYDYWGQGRQVTVSS | high polyreactivity
QVQLVESGGGVVQARGSLRLSCAASGSTFDVNAMGWYRQAPWKDRELVAAISWNSGTTYYADSVKGRFTISRDNAKNSVYLQMNSLKPEDTAVYYCAASYGTGRRSKYGYWGQGTQVTVSS | high polyreactivity
QVQLVESGGPLVQAGGSLLLSCAASGFTFTVYAKGWYRQAPGKERELVAAITYNGGSTYYADSVKGRFTISRDNAKNTVYLQMNSLKPEDTAVYYCAAEVFLRSLGYWYDFWGLGTQVTVSS | high polyreactivity
QVQLVESGGRIVQAGGSLRLICAASGRIFVRNAMGWYRQAPGKERELVAAITTSGGRTYYADSVKGRFTISRDNAKNTVYLQMNSLKPEDTAVYYCAADTRYRNYPYYYWGQGTQVTVSS | high polyreactivity
QVQLVESGGRIVQAGGSLRLICASSGLIFYDNMGWYRQAPGKERELVAAISSSGGSRTYADSVKGRFTISRDNAKNTVYLQMNSLKPEDTAVYYCAVDKHYYGRYGVTYDYDYWGQGTQVTVSS | low polyreactivity
QVQLVESGGRIVQAGGSLRLSCAASGFIYSKYAMGWSRPAPGKEGQLVAAISSSGGYTYYADSVKGRFTISRDNAKNTVYLQMNSLKPEATAVYYCNADYLFYAFDYWGHGTQVTVSS | low polyreactivity
QVQLVESGGRIVQAGGSLRLSCAASGSTFLYYDMGWYRQAPGKERELVAAITNGGNTYYADSVKGRFTISRDNAKNTVYLQKNSRKPEDTAVYYCAKLYTDAIVWSAYDYWGQGTQVTVSS | low polyreactivity
QVQLVESGGRLFQAGGSLRLSCAACGFTIPYYAMRWYRKAPGKERELVAAIDWTGGSTYYADSVKGRFTISRDKAKNTVYLQMNSRKPEETEVYYCAREVDYSISSPTPPVVELDYWGQGTQVTVSS | low polyreactivity
QVQLVESGGRLFQAGGSLRLSCAASGRIFYHNALGWYRQAPGKERELVADNASGGSTYYADSVKARFTISRDNAKNTVYLQMNSLKPEDTAVYYCAAEDEDSIFPFPYGAGSLFDFWGQGTQVTVSS | low polyreactivity
QVQLVESGGRLGQAVGSLRLSCAASGSIFLQNAMGWYRQAPGKERELVAAITNGGSTNYADSVKGRCTISRDNAKNTVYLQINSLKPEDTAVYYCAAYPLYTGSYDRGGYWGLGTQVTVSS | low polyreactivity
QVQLVESGGRLVEAGGSLRLSCAASGRTIPAYALGWYRQAPGKERELVAGISYRGGSTYYADSVKGRFTISRDKAKNTVYLPMNSLKPEDTAVYYCARVYSRNKGVYWGQGTQVPVSS | low polyreactivity
QVQLVESGGRLVQAGGILRLSCAASGLTFADNAMGWYRQAPGKERELVATISYSGGSTYYADSVKGRFTISRDNAKNTVYLQMNSLKPEDTAVYYCATVWETKAYSRIQWYYYWGQGTQVTVSS | low polyreactivity
QVQLVESGGRLVQAGGRLRLSCAASGFTFGSYAMGWYRQAPGKERELVPSISSAGRTYYADSVKGRFTISRDNAKNTVYLQMNSLKPEDTAVYYCNTDSRVTIYDYDYWGQGTQVTVSS | low polyreactivity
QVQLVESGGRLVQAGGSIRLICAASGFTFIGYAMGWYRQAPGKERELVADITYSGSSTYYADSVKGRFTISRDNAKNTVYLQMNSLKPEDTAVYYCAAEAYYYCFDVDYWGQGTLVTVSS | low polyreactivity
QVQLVESGGRLVQAGGSLLLSCAASGIIFYDYAMGWYRRAPGKERQLVAAITSGGSTNYADSVKGRFTISRDNAKNTVYLQMNSLKPEDTAVYYCAATYWSWISLRWYEYYYWGEGTQVTVSS | low polyreactivity
QVQLVESGGRLVQAGGSLRLLCAASGLILHKYAMGWYRQAPGKERELVASINSGANTNYADSVKGRFTISRDNAKNTVYLQMNSLKPEDTAVYYCNADPGFRSGDYGYSSFDYGGQGTQVTVSS | low polyreactivity
QVQLVESGGRLVQAGGSLRLRCAASGRIIAYYAMGWYRQAPGKERELVAAISRSGGSTYYADSVKGRFTISRDTAQNYVYLQMNSLKPEDTAVYYCAASLIVPYATMNYWGQGTQVTVSS | high polyreactivity
QVQLVESGGRLVQAGGSLRLSCAAAGSTIPKYAMGWYRQPPGKERELVAAITWRGGSTYYADSVKGRFTISRDNAKNTVYLQMNSLKPEDTAVDYCAAEPYYPSRMDYWGQGTQVTVSS | low polyreactivity
QVQLVESGGRLVQAGGSLRLSCAASGFIFPRYTRGWYRQAPGKESELVAGITLRGGSTYYADSVKGRFTISRDNAKNTVYLQMNSLKPEDTAVYYCARGISRGRSFGIGYDYWGQGTQVTVSS | low polyreactivity
QVQLVESGGRLVQAGGSLRLSCAASGFIFSRYAMGWSRQAPGKERELVAAISRGGSTNYADSVMGRFTISRDNAKNTVYLQMNSLKPEDTAVYYCAVRQIVRYYYWGQGTQVTVSS | high polyreactivity
QVQLVESGGRLVQAGGSLRLSCAASGFILLAYAMGWYRQAHGKERELVAAITSGGSTHYADSVKGRFTISRDNAKNTVYLQMNSLKPEDTAVYYCAKDTVFRYSGNTYGYWGQGTQVTVSS | low polyreactivity
QVQLVESGGRLVQAGGSLRLSCAASGFILTSYAMGWYRQAPGKERELVAAISSRGGRTYYADSVKGRFTISRDNAKNTVYLQMNSLKPEDTAVYYCNAVVYVVGDFDYWGQGTQVTGSS | high polyreactivity
QVQLVESGGRLVQAGGSLRLSCAASGGTFGQYAMGWYRQAPGKERELVAAISRGGDSTYSADSVKGRFTISRDNAKNTVYLQMNSLKPADTAVYYCAAPGISYYSRYYYRTYDYWGQGTQVTVSS | high polyreactivity
QVQLVESGGRLVQAGGSLRLSCAASGIIFPYYAMGWYRPAPGTVRELVAGISSSGGITYADSVKGRYTISRDNAKNTVYLPMNSLKPEDTAVYYCNAEYQWLEYDYWGQGTQVTVSS | low polyreactivity
QVQLVESGGRLVQAGGSLRLSCAASGITLNRNAMGWYRQEPGKESELVARISRRGGTTYYADSVKGRFTISRYYAKNTVYLQMNSLKPEDTAVYYCAASYSDRKLTDYWGQRTQVTVSS | high polyreactivity
QVQLVESGGRLVQAGGSLRLSCAASGLIFADYTMGWYRQAPGKERELVAVITDGDSTYYADSVKGRFTISRDNAKNTVYLQMNSLKPEDTAVYYCAARSAILKSGYLMDYWGQGTQVTVSS | low polyreactivity
QVQLVESGGRLVQAGGSLRLSCAASGPIFAPYDMGWYRQAPGKERELVAAISRSGGSTYYADSVKGRFTISRDNAKNTVYLQMNSLKPEETPVYSCAAGLFVGFDYWGQGTQVTVTS | high polyreactivity
QVQLVESGGRLVQAGGSLRLSCAASGRIFAAYAMGWYRQAPGKEREFVAGITRTGGSTYYADSVKGRFTISRDHAKNTVYFQMNSLKPEDTAVYYCAASLVYYGHAYNYWGQGTQVTVSS | high polyreactivity
